Results published in the DeepSol protein solubility set.

Assay: soluble on expression in E. coli; label from the status in PepcDB or PDB records
For “MLNSKPVSYQVLKFILKHLDPSLRIQLCLVCPSIHTLEKSTPSYIHYLKITDNSVTVNRVTCQITVTDRKVDYQFDINQFPSISGTVELRNSRNNLTKTMKYLLDKLFKGRTVKVGQLAISCENPLRVPLAARINVNVLEVFDSRSLSAASSLIANSCLPLSLIKLPFKSLLKTNNNPITSIVNRKTKKWHFKAPTTAPHNLRRVLTFLQNRRVTTAHFERGHFCFSIVIEYFMGDSDIENGTYYTFDTTRGAVFVVMERSRKRYKAMLEDGSSRRSNQLTIKKNSTSKLVISKIQQGDAWILGFKIERRRLFPTFF”, the “soluble on expression in E. coli” value was “not soluble”.
With “MLNVEPSFAEELRSSGVSLSATYLGSVPVVESINVMVSEMRVQVVSECIQHVAATVGVTAAREINPVVSRPTLHGSMKKPR” the “soluble on expression in E. coli” value was “not soluble”.
For “MLPERVLEILREMKRERIKGASWLAKKGAEAFLTLAEELDESLLEDAIMELREEVVKVNPSMASLYNLARFIPVTNRRDILKSRALEFLRRMEEAKRELASIGAQLIDDGDVIITHSFSSTVLEIIRTAKERKKRFKVILTESSPDYEGLHLARELEFSGIEFEVITDAQMGLFCREASIAIVGADMITKDGYVVNKAGTYLLALACHENAIPFYVAAETYKFHPTLKSGDVMLMERDLIRGNVRIRNVLFDVTPWKYVRGIITELGIVIPPRDIQLEHHHHHH”, the “soluble on expression in E. coli” value was “not soluble”.
With “MLPKRNSGDNELYTNREKRKKMTSYIADSAVFIMGNCGVDSSLLITVPSVADELKSRDSMLRFDLAKEEGLRVEWPEPEMVKEVRKKAEQTRDSEELSKTDLEILAKALEHRETAVLLTDDYAVQNVAVQLGIQVKPIAQKKIKDVLIWQKQCTGCKKTFDKGDECPICGSPLKKKRKRKLKGKGYRESLEHHHHHH” the “soluble on expression in E. coli” value was “not soluble”.
With “MLQINQMFSVQLSLGEQTWESEGSSIKKAQQAVANKALTESTLPKPVQKPPKSNVNNNPGSITPTVELNGLAMKRGEPAIYRPLDPKPFPNYRANYNFRGMYNQRYHCPVPKIFYVQLTVGNNEFFGEGKTRQAARHNAAMKALQALQNEPIPERSPQNGESGKDMDDDKDANKSEISLVFEIALKRNMPVSFEVIKESGPPHMKSFVTRVSVGEFSAEGEGNSKKLSKKRAATTVLQELKKLPPLPVVEKPKLFFKKRPKTIVKAGPEYGQGMNPISRLAQIQQAKKEKEPDYVLLSERGMPRRREFVMQVKVGNEVATGTGPNKKIAKKNAAEAMLLQLGYKASTNLQDQLEKTGENKGWSGPKPGFPEPTNNTPKGILHLSPDVYQEMEASRHKVISGTTLGYLSPKDMNQPSSSFFSISPTSNSSATIARELLMNGTSSTAEAIGLKGSSPTPPCSPVQPSKQLEYLARIQGFQAALSALKQFSEQGLDPIDGAMNIEKGSLEKQAKHLREKADNNQAPPGSIAQDCKKSNSAV” the “soluble on expression in E. coli” value was “soluble”.
For “MLQQVREQVAARLRLDAGRPWLMVHAGSGGSANNLSIEQYARLIIKLNQACPELQCILTAGPGEERIAEQLAAELLAHGGNGWIYRSDEGLPKFCQVMANAALFVAGSTGPLHIAAALDVPTIGFFPAHRSATPLRWRPLNSEGRHLAFSPPEDSDHPEDMSQLDPKTMAAAIARWAPPFWRTEHLEHHHHHH”, the “soluble on expression in E. coli” value was “not soluble”.
With “MLRFPENVVICDGKRILWNGLGLPENLVFEMARTVLESNVPLKGKIFCFPAQTVLGKMAIFTDEKTQGRDVLVELLNHELLRMRLYSEEVENLVEVLFNDWRPGKRVFIVRSKNFETRLSLREKLSSFADVIYNAGEIDVGIAPAGTLLQINEEKVSFSDPERDIKEAVRKALLIDRYVNEPFSFYEKLPAYNFSLNIQIPELVKIFLRTGDIQKTSELTEKNVEVVFREILKFEKKTLLSPRIPVEAFLILKGGLD” the “soluble on expression in E. coli” value was “not soluble”.
In the case of “MLRISELKLPLDHTQEELADAVAGFLKAPADEVRGFTVFKRSYDARKGVMSLVYIIDVDVANEDKLFARFKGDRRVMPTPDTHYYYVAQAPESLKSRPVVVGFGPCGIFAALILAQMGFKPIVLERGKEVRQRTKDTWGLWRKSELNTESNVQYGEGGAGTFSDGKLYSQIKDPRHLGRKVLTEFVKAGAPEEILYLARPHIGTFRLVSMVENMRAEIIALGGEIRFEQRVDDLILDGDRVRGVKLADGGEVLSDHVVLALGHSARDTFQMLEKRGVYMEAKPFSVGVRIEHPQSLIDAARWGKYAGHPILGAADYKLVHHAGNGRAVYSFCMCPGGTVVAATSEEKRVVTNGMSQYSRNERNANSGFVVSISPEVDYPGGPLAGLDFQRELESKAYELGGGDYFAPAQLLGDFMAGKASTQLGSVEPSYKPGVTMTDLARILPDFCVEAMREAIPHFARQIRGYDLHDAVLTGLETRTSSPLRITRGEDFQSLNIKGLFPAGEGAGYAGGILSAGVDGIKVAEAVAKAMLGQLEHHHHHH”, the “soluble on expression in E. coli” value is reported as “soluble”.
